This is an account of results in the supplement of paper PMC9170038.

In the data set the test system is MS2 coat protein. Briefly: apparent KD of MS2 coat protein; designed switch direction (-1 OFF switch, 1 ON switch): 1; higher = weaker reporter binding. The method, boiled down: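 Designed RNA switches with common flanks were made on Illumina chips by stalled E. coli RNA polymerase. Titration with SNAP-549-labelled MS2 coat protein doubled from 0.7 or 1.5 nM up to 3 µM. Apparent KD is each design's median over clusters after curve-fitting normalised fluorescence.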

Setting [1] is: Eterna round: R95, input ligand: FMN 200 uM.
[2] abbreviates: Eterna round: R95, input ligand: microRNA oligo, concentration not stated.
Setting [3] is: Eterna round: R95, input ligand: none.
Where [4] appears, read: input ligand: microRNA oligo, concentration not stated.

As to “GUAAAACAUGAGGAUCACCCAUGUAAUAAUAUGGGAGGAUAUCUGAUUUAAUUUAAUUUAAGAGAAGGCCUAAAUG [Mat - Same State 1 - Mod of Eli - D58] (puzzle: Same State 1)”, the “apparent KD of MS2 coat protein” value by setting is: under setting [1], 39.9 nM; under setting [2], 318 nM; under setting [3], 608 nM.
The corresponding values for “GUAAAACAUGAGGAUCACCCAUGUCAUCUAAGUCGAGGAUAUGGGAAUUAAUUAAUUAAACCAGAAGGCGAAAUUG [Mat - Same State 1 - D97] (puzzle: Same State 1)” are 44.6 nM, 844 nM and 606 nM.
As to “GUAAUACAUGAGGAUCACCCAUGUCAAUGUAGUCGAGGAUAUGGGUAGCUAUGAGGCUUACUAGAAGGCGACGAGC [Same State 1 - Mod of Vinnie Teenbexe v.5] (Eterna round: R96, puzzle: Same State 1)”, the “apparent KD of MS2 coat protein” value came to 46.5 nM (input ligand: FMN 200 uM), 208 nM under setting [4] and 249 nM (input ligand: none).
With “GUAAUACAUGAGGAUCACCCAUGUCAAUGUAGUCGAGGAUAUGGGUAGCUAUGAGGCUUACUAGAAGGCGACGAGC [Same State 1 - Mod of Vinnie Teenbexe v.5] (puzzle: Same State 1)”, the “apparent KD of MS2 coat protein” value runs as follows: under setting [1], 28 nM; under setting [2], 176 nM; under setting [3], 359 nM.
On to “GUACAGAUCACAGGAUAUCACGUCGUUUAGACGUGAGAAGGGUGAUCACACAUGAAUAUUAAUACAUGAGGAUCACCCAUGUAC [SSNG1/16-A3] (Eterna round: R96, puzzle: Same State NG 1)”, for which the “apparent KD of MS2 coat protein” value under setting [4] came out at 22.1 nM.
“GUACAGAUUAUAGGAUAUCACGUCGUUUAGACGUGAGAAGGAUAAUCACACAUGAAUAUUAAUACAUGAGGAUCACCCAUGUAC [SSNG1/17-A3] (Eterna round: R96, puzzle: Same State NG 1)”: the “apparent KD of MS2 coat protein” value worked out at 18.4 nM (input ligand: FMN 200 uM), 17.5 nM under setting [4] and 18.5 nM (input ligand: none).
For “GUACAUAUUAUAGGAUAUCACGUCGAAUAGACGUGAGAAGGAUAAUCCCACAUGAAUAUUAAUACAUGAGGAUCACCCAUGUAC [SSNG1/18-A1] (Eterna round: R96, puzzle: Same State NG 1)”, the “apparent KD of MS2 coat protein” value amounted to 42 nM (input ligand: FMN 200 uM), 49.7 nM under setting [4] and 49.2 nM (input ligand: none).
With “GUAGAUAUAACGGAGGAUAUUCAAUGAGAGACAUGAGGAUCACCCAUGUAAGAGUGAGAUGAUAGGAAGAAGGCUGAGAGAGAUG [Altered State 2-9 - Jieux - Same State 2] (puzzle: Same State 2)”, the “apparent KD of MS2 coat protein” value was found to be 140 nM under setting [1], 139 nM under setting [2] and 102 nM under setting [3].
Turning to “GUAGCAUACCGAGGAUAUUCAUACAUGAGGAUCACCCAUGUUAUUAUAGGCCGAUUACGGCCUUGGGAGAAGGCGGAAUGCUAC [Xeonanis - 20 Mod28] (Eterna round: R96, puzzle: Same State NG 2)”, the “apparent KD of MS2 coat protein” value came to 13.1 nM (input ligand: FMN 200 uM), 11.4 nM under setting [4] and 16.1 nM (input ligand: none).
As to “GUAGGACAUGAGGAUCACCCAUGUGGAGAGGAACGAGGAUAUGUGAGAGGAGUGCAGAGGACAGAAGGCGUGGAGG [JR_SS1_Sub027] (puzzle: Same State 1)”, the “apparent KD of MS2 coat protein” value is 42.6 nM under setting [1], 31.1 nM under setting [2] and 62.1 nM under setting [3].
For “GUAUCUACAGGUUUUUUAGCUCGUCUGAUACAUGAGGAUCACCCAUGUUAUAGCCCUGUGCUUGCGCAGGGCUGAGG [Sensor for hsa-mir-208a ( MOD of Tearor v.4 )] (puzzle: Sensor for hsa-mir-208a)”, the “apparent KD of MS2 coat protein” value is, setting by setting: under setting [1], 47.6 nM; under setting [2], 34.1 nM; under setting [3], 49.3 nM.
Regarding “GUCAGGCAAGCUUUUUUCUCGUAGUGUAAACAUGAGGAUCACCCAUGUGCUCGCCCUGGAUCUUUGGAUCCCAGAAA [Anedraus] (puzzle: Sensor for hsa-mir-208a)”, the “apparent KD of MS2 coat protein” value is 40.2 nM under setting [1], 21 nM under setting [2] and 41.9 nM under setting [3].
Take “GUGAAGAAUUAAGGAUAUCGAGUCAAGAUGUUAAACAUGAGGAUCACCCAUGUGGGUUGCGGUAUCGAGAAGGUAAAUUACAAG [salish99_SSNG2_r04_501] (Eterna round: R96, puzzle: Same State NG 2)”: the “apparent KD of MS2 coat protein” value (input ligand: FMN 200 uM) was 26.7 nM, the “apparent KD of MS2 coat protein” value under setting [4] was 25.9 nM and the “apparent KD of MS2 coat protein” value (input ligand: none) amounted to 31.4 nM.
“GUGCAACCGUGUGAGGAUAUCGGUGAAUAAACAUGAGGAUCACCCAUGUCCGAAGCUCGGUUCUCCGAGAAGGCGCACAGUUGCA [Same State 2 - Mod of Erisin v.4] (puzzle: Same State 2)”: the “apparent KD of MS2 coat protein” value is, setting by setting: under setting [1], 23.8 nM; under setting [2], 116 nM; under setting [3], 159 nM.
As to “GUGCUCGUGUGAGGAUAUGCUUCCGUUUCGGCUGCAGAAGGUACUAUUAUACAUGAGGAUCACCCAUGUCUCUUUUCUUCGGUG [salish99_SSNG1_r04_912] (Eterna round: R96, puzzle: Same State NG 1)”, the “apparent KD of MS2 coat protein” value under setting [4] is 22.8 nM.
As to “GUGCUCGUGUGAGGAUAUGCUUCCGUUUCGGCUGCAGAAGGUACUAUUAUACAUGAGGAUCACCCAUGUCUCUUUUGUUUGGUG [salish99_SSNG1_r04_910] (Eterna round: R96, puzzle: Same State NG 1)”, the “apparent KD of MS2 coat protein” value (input ligand: FMN 200 uM) was determined as 95 nM, the “apparent KD of MS2 coat protein” value under setting [4] amounted to 51.9 nM and the “apparent KD of MS2 coat protein” value (input ligand: none) worked out at 67.8 nM.
On the same counts, the results for “GUGCUCGUGUGAGGAUAUGUUGCCGGGUCGGCUGCAGAAGGUACUAUUAUACAUGAGGAUCACCCAUGUCGCUUUUCUCCGGUG [salish99_SSNG1_r04_920] (Eterna round: R96, puzzle: Same State NG 1)” are 98.3 nM, 58.8 nM and 65.8 nM.
Take “GUGGCCCAGGCACAGGAUAUGUUUCUCGUAACAUGAGGAUCACCCAUGUGCCUAUGAGAUAUAAUGCAGAAGGGUGCACGCCACG [Mat - Same State 2 - Mod of UCT - D80] (puzzle: Same State 2)”: the “apparent KD of MS2 coat protein” value was 16.2 nM under setting [1], 68.2 nM under setting [2] and 60.9 nM under setting [3].
Turning to “GUGGCGGGUUGAGGAUAUUGGUUGCCUAUGUUUUACAUGAGGAUCACCCAUGUGGGUUGCGGUUUCGAGAAGGUAGGUUGCUGG [salish99_SSNG2_r04_047] (Eterna round: R96, puzzle: Same State NG 2)”, the “apparent KD of MS2 coat protein” value by setting is: (input ligand: FMN 200 uM) 420 nM; under setting [4], 228 nM; (input ligand: none) 347 nM.
For the sequence “GUGGUCAGACAUGAGGAUCACCCAUGUGGAAUAAAUAACAGACAGGAUAUCCAAUAUAGGAUAUAGGAGAAGGGUCGAUUGGUG (Eterna round: R96, puzzle: Same State NG 3)”, the “apparent KD of MS2 coat protein” value under setting [4] turned out to be 56.9 nM.
Same read-out and setting: in the case of “GUGGUCAGACAUGAGGAUCACCCAUGUGGAAUAAAUAACGAACAGGAUAUGCAAUAUAGGAUAUAGUAGAAGGGUUGAUUGGUG (Eterna round: R96, puzzle: Same State NG 3)” it was 82.4 nM.
On to “GUGGUCAGACAUGAGGAUCACCCAUGUGGAAUAAAUAACGGACAGGAUAUCGAAUAUAGGAUAUACGAGAAGGGUUGAUUGGUG (Eterna round: R96, puzzle: Same State NG 3)”, for which the “apparent KD of MS2 coat protein” value under setting [4] was found to be 53.9 nM.
The same measure, in the same setting: then “GUGGUCAGACAUGAGGAUCACCCAUGUGGAAUAAAUAAGGAAUAGGAUAUGGAAUAUAGGAUAUACCAGAAGGGUUGGUUGGUG (Eterna round: R96, puzzle: Same State NG 3)”, with 73.4 nM.
Still for that read-out and setting: then “GUGGUCAGACAUGAGGAUCACCCAUGUGGAAUAAAUAAGGAGAAGGAUAUUAAAUAUAGGAUAUAUAAGAAGGUCUGGUUGGUG (Eterna round: R96, puzzle: Same State NG 3)”, with 65.2 nM; and “GUGGUCAGACAUGAGGAUCACCCAUGUGGAAUAAAUAAGGUCAAGGAUAUUCAAUAUAGGAUAUAGAAGAAGGUGAGGUUGGUG (Eterna round: R96, puzzle: Same State NG 3)”, with 108 nM.
Turning to “GUGGUUCUCGUAGGAUAUGUAGGAUAUGCCUACAUGAGGAUCACCCAUGUUCGCAUGGCAGAAGGACAGAAGGACGAUCACUAA [pwkr ssNG2 2FMN + 1F5.15] (Eterna round: R96, puzzle: Same State NG 2)”, the “apparent KD of MS2 coat protein” value was found to be 159 nM (input ligand: FMN 200 uM), 11.7 nM under setting [4] and 94.2 nM (input ligand: none).
For the sequence “GUUAAACAUGAGGAUCACCCAUGUAAUAUAAUGGGAGGAUAUCUGAAUUAAUUAAAUUAAGGAGAAGGCCUAAUUG [Mat - Same State 1 - Mod of Eli - D52] (puzzle: Same State 1)”, the “apparent KD of MS2 coat protein” value is, setting by setting: under setting [1], 42 nM; under setting [2], 181 nM; under setting [3], 255 nM.
In the case of “GUUAAACAUGAGGAUCACCCAUGUAAUCAUAUGGGAGGAUAUGGGAAUUAAUUAAUUAAACCAGAAGGCCUAAUUG [Mat - Same State 1 - D83] (puzzle: Same State 1)”, the “apparent KD of MS2 coat protein” value runs as follows: under setting [1], 19.6 nM; under setting [2], 87.4 nM; under setting [3], 92.3 nM.
As for “GUUACAUGAGGAUCACCCAUGUAUGUGUGGGAGUAAGUGUCUUAGGAUAUCUAGGAUUUAAUUUAAGAGAAGGAAGAUUGUUGU [JMF's solution 50] (Eterna round: R96, puzzle: Same State NG 3)”, the “apparent KD of MS2 coat protein” value (input ligand: FMN 200 uM) was found to be 89.7 nM, the “apparent KD of MS2 coat protein” value under setting [4] amounted to 45.9 nM and the “apparent KD of MS2 coat protein” value (input ligand: none) came to 77.4 nM.
